2 molecules from patent publication US20260102474A1 (published 2026) can be followed below.

Common to all, as to test: competition
The target in assay [1] is SARS-COV-2 full-length trimeric spike protein, Gamma (P.1) (SARS-COV-2).
In assay [2] the target is SARS-COV-2 full-length trimeric spike protein, Beta (B1.351) (SARS-COV-2).
The target of assay [3] is Trimeric S-protein corresponding to Omicron (B.1.1.529) (SARS-COV-2).
Assay [4] has as its target SARS-COV-2 full-length trimeric spike protein, Delta (B.1.617.2) (SARS-COV-2).
The target in assay [5] is SARS-COV-2 full-length trimeric spike protein, Alpha (B.1.1.7) (SARS-COV-2).

B1: ACE2-M2-FcKO (Fc fusion)
chain: STIEEQAKYFLDYFNVQAEDLFYQSSLASWNYNTNITEENVQNMNNAGDKWSAFLKEQSTYAQRYPLQEIQNLTVKLQLQALQQNGSSVLSEDKSKRLNTILNTMSTIYSTGKVCNPDNPQECLLLEPGLNEIMANSLDYNERLWAWESWRSEVGKQLRPLYEEYVVLKNEMARANHYEDYGDYWRGDYEVNGVDGYDYSRGQLIEDVEHTFEEIKPLYEHLHAYVRAKLMNAYPSYISPIGCLPAHLLGDMWGRFWTNLYSLTVPFGQKPNIDVTDAMVDQAWDAQRIFKEAEKFFVSVGLPNMTQGFWEYSMLTDPGNVQKAVCHPTAWDLGKGDFRILMCTKVTMDDFLTAHREMGRIQYDMAYAAQPFLLRNGANEGFHEAVGEIMSLSAATPKHLKSIGLLSPDFQEDNETEINFLLKQALTIVGTLPFTYMLEKWRWMVFKGEIPKDQWMKKWWEMKREIVGVVEPVPHDETYCDPASLFHVSNDYSFIRYYTRTLYQFQFQEALCQAAKHEGPLHKCDISNSTEAGQKLFNMLRLGKSEPWTLALENVVGAKNMNVRPLLNYFEPLFTWLKDQNKNSFVGWSTDWSPYADQSIKVRISLKSALGDKAYEWNDNEMYLFRSSVAYAMRQYFLKVKNQMILFGEEDVRVANLKPRISFNFFVTAPKNVSDIIPRTEVEKAIRMSRSRINDAFRLNDNSLEFLGIQPTLGPPNQPPVSSGGGGSGGGGSGGGGSEPKSSDKTHTCPPCPAPPVAGPSVFLFPPKPKDTLMISRTPEVTCVVVGVSHEDPEVKFNWYVDGVEVHNAKTKPREEQYNSTYRVVSVLTVLHQDWLNGKEYKCKVSNKQLPSPIEKTISKAKGQPGQPREPQVYTLPPSRDELTKNQVSLTCLVKGFYPSDIAVEWESNGQPENNYKTTPPVLDSDGSFFLYSKLTVDKSRWQQGNVFSCSVMHEALHNHYTQKSLSLSPGK
In the case of B1, the IC50 in assay [1] came to 3.6 nM; in assay [2] it was 3.9 nM; in assay [3] it was 0.7 nM; in assay [4], 3.3 nM; in assay [5] it was 4.3 nM.

B2: ACE2-M1-FcKO (Fc fusion)
chain: STIEEQAKYFLDKFNHEAEDLFYQSSLASWNYNTNITEENVQNMNNAGDKWSAFLKEQSTYAQMYPLQEIQNLTVKLQLQALQQNGSSVLSEDKSKRLNTILNTMSTIYSTGKVCNPDNPQECLLLEPGLNEIMANSLDYNERLWAWESWRSEVGKQLRPLYEEYVVLKNEMARANHYEDYGDYWRGDYEVNGVDGYDYSRGQLIEDVEHTFEEIKPLYEHLHAYVRAKLMNAYPSYISPIGCLPAHLLGDMWGRFWTNLYSLTVPFGQKPNIDVTDAMVDQAWDAQRIFKEAEKFFVSVGLPNMTQGFWEYSMLTDPGNVQKAVCHPTAWDLGKGDFRILMCTKVTMDDFLTAHREMGRIQYDMAYAAQPFLLRNGANEGFHEAVGEIMSLSAATPKHLKSIGLLSPDFQEDNETEINFLLKQALTIVGTLPFTYMLEKWRWMVFKGEIPKDQWMKKWWEMKREIVGVVEPVPHDETYCDPASLFHVSNDYSFIRYYTRTLYQFQFQEALCQAAKHEGPLHKCDISNSTEAGQKLFNMLRLGKSEPWTLALENVVGAKNMNVRPLLNYFEPLFTWLKDQNKNSFVGWSTDWSPYADQSIKVRISLKSALGDKAYEWNDNEMYLFRSSVAYAMRQYFLKVKNQMILFGEEDVRVANLKPRISFNFFVTAPKNVSDIIPRTEVEKAIRMSRSRINDAFRLNDNSLEFLGIQPTLGPPNQPPVSSGGGGSGGGGSGGGGSEPKSSDKTHTCPPCPAPPVAGPSVFLFPPKPKDTLMISRTPEVTCVVVGVSHEDPEVKFNWYVDGVEVHNAKTKPREEQYNSTYRVVSVLTVLHQDWLNGKEYKCKVSNKQLPSPIEKTISKAKGQPGQPREPQVYTLPPSRDELTKNQVSLTCLVKGFYPSDIAVEWESNGQPENNYKTTPPVLDSDGSFFLYSKLTVDKSRWQQGNVFSCSVMHEALHNHYTQKSLSLSPGK
On to B2, for which the half-maximal inhibitory concentration (IC50) in assay [1] worked out at 3.8 nM; in assay [2], 3.9 nM; in assay [3] it was 0.5 nM; in assay [4], 1.8 nM; in assay [5], 6.9 nM.
